This note sets out measurements from patent publication US7696168 (TUFTS MEDICAL CENTER, dated 2010).

Common to all, as to assay: cell-based or functional assay
Assay [1] concerns the target T1, human cholecystokinin B receptor (CCKB) (human, UniProt P32239 1-447).
T1 sequence (looked up): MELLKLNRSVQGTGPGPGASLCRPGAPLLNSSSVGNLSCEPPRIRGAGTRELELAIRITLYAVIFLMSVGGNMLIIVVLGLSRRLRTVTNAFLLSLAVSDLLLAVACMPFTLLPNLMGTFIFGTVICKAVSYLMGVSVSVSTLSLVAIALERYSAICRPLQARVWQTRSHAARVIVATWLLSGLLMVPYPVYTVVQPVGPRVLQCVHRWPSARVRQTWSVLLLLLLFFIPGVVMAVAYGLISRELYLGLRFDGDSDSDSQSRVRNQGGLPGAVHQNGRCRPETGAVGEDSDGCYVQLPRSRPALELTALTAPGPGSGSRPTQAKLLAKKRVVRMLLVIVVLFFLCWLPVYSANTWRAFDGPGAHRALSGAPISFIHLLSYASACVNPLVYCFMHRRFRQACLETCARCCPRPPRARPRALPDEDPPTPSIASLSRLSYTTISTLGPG

In assay [2] the target is rat somatostatin receptor (SSTR2) (rat, UniProt P30680 1-369).
rat somatostatin receptor (SSTR2), sequence (P30680 whole entry): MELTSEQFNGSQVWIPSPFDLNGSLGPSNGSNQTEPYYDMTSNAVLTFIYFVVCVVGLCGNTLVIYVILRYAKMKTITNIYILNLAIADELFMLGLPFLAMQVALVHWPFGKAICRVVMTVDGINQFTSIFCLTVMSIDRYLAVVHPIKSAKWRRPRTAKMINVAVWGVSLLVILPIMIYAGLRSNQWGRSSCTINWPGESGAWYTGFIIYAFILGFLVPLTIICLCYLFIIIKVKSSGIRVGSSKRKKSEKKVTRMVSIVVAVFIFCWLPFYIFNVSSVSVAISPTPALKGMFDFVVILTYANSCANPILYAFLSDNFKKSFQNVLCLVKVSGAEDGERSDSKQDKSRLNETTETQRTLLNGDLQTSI
In a further assay the target is T2, human PAR1 (human, UniProt P25116 42-425).
T2 sequence (looked up): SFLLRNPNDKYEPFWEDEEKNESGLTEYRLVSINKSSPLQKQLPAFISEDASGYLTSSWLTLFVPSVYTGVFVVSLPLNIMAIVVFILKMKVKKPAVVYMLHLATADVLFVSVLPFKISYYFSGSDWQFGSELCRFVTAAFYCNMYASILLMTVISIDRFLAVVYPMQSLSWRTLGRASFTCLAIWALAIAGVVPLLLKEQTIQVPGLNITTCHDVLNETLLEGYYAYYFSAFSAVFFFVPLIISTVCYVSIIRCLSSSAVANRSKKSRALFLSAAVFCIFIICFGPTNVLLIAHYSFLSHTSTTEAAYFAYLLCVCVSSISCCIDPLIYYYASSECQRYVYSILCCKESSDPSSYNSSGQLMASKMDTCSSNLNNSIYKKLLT

The target of another assay is MC4 receptor (MC4R) (human, UniProt P32245 1-332).
MC4 receptor (MC4R), sequence (P32245 whole entry): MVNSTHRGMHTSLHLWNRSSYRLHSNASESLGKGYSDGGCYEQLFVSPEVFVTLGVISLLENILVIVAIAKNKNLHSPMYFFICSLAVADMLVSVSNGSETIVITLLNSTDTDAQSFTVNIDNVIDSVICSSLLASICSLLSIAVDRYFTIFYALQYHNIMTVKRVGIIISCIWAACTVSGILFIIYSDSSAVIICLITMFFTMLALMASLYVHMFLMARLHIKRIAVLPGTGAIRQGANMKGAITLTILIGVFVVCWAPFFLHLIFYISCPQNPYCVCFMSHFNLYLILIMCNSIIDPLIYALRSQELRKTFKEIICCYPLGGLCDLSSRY
In assay [3] the target is T3, human cholecystokinin A receptor (CCKA) (human, UniProt P32238 1-428).
T3 sequence (looked up): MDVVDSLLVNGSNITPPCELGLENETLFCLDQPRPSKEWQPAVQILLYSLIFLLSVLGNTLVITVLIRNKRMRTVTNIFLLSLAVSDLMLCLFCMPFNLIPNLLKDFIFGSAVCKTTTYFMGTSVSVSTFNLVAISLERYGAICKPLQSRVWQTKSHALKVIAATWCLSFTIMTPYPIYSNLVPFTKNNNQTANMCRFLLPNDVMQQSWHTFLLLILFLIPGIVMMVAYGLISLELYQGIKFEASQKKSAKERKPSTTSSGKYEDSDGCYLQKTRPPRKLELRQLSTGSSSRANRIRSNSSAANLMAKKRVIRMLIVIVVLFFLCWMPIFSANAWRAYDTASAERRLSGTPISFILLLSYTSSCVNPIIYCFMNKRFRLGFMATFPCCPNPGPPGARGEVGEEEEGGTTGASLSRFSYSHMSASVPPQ

The star is where a group is joined. Palmitoyl = CCCCCCCCCCCCCCCC(=O)*

B1: Bpal-18 (Pal-SGSRPTQAKLLAKKRVVR) (peptide)
peptide: Palmitoyl-SGSRPTQAKLLAKKRVVR-NH2
SMILES: CCCCCCCCCCCCCCCC(=O)N[C@@H](CO)C(=O)NCC(=O)N[C@@H](CO)C(=O)N[C@@H](CCCNC(=N)N)C(=O)N1CCC[C@H]1C(=O)N[C@H](C(=O)N[C@@H](CCC(N)=O)C(=O)N[C@@H](C)C(=O)N[C@@H](CCCCN)C(=O)N[C@@H](CC(C)C)C(=O)N[C@@H](CC(C)C)C(=O)N[C@@H](C)C(=O)N[C@@H](CCCCN)C(=O)N[C@@H](CCCCN)C(=O)N[C@@H](CCCNC(=N)N)C(=O)N[C@H](C(=O)N[C@H](C(=O)N[C@@H](CCCNC(=N)N)C(N)=O)C(C)C)C(C)C)[C@@H](C)O
Consider B1, for which, in assay [1], the “Agonist EC50 (activating phase, InsP formation)” value (from here on “Agonist EC50”) came out at 1.5 µM; the “Agonist Efficacy (% of full response to 300 nM CCK-8)” value amounted to 12%; the “Agonist IC50 (inhibitory phase, InsP formation)” value amounted to 10 µM.

B2: S2pal-23F (Pal-KVRSSGIRVGSSKRKKSEKKVTF) (peptide)
peptide: Palmitoyl-KVRSSGIRVGSSKRKKSEKKVTF-NH2
SMILES: CCCCCCCCCCCCCCCC(=O)N[C@@H](CCCCN)C(=O)N[C@H](C(=O)N[C@@H](CCCNC(=N)N)C(=O)N[C@@H](CO)C(=O)N[C@@H](CO)C(=O)NCC(=O)N[C@H](C(=O)N[C@@H](CCCNC(=N)N)C(=O)N[C@H](C(=O)NCC(=O)N[C@@H](CO)C(=O)N[C@@H](CO)C(=O)N[C@@H](CCCCN)C(=O)N[C@@H](CCCNC(=N)N)C(=O)N[C@@H](CCCCN)C(=O)N[C@@H](CCCCN)C(=O)N[C@@H](CO)C(=O)N[C@@H](CCC(=O)O)C(=O)N[C@@H](CCCCN)C(=O)N[C@@H](CCCCN)C(=O)N[C@H](C(=O)N[C@H](C(=O)N[C@@H](Cc1ccccc1)C(N)=O)[C@@H](C)O)C(C)C)C(C)C)[C@@H](C)CC)C(C)C
Turning to B2, in assay [2], the “Agonist EC50” value turned out to be 0.1 µM; the “Agonist Efficacy (% of full response to extracellular agonist)” value is 15%; the “Agonist IC50 (inhibitory phase, InsP formation)” value was determined as 0.5 µM; the “Antagonist IC50 (InsP formation, against 1 µM …)” value is 3 µM.

B3: S2pal-23 (Pal-KVKSSGIRVGSSKRKKSEKKVTK) (peptide)
peptide: Palmitoyl-KVKSSGIRVGSSKRKKSEKKVTK-NH2
SMILES: CCCCCCCCCCCCCCCC(=O)N[C@@H](CCCCN)C(=O)N[C@H](C(=O)N[C@@H](CCCCN)C(=O)N[C@@H](CO)C(=O)N[C@@H](CO)C(=O)NCC(=O)N[C@H](C(=O)N[C@@H](CCCNC(=N)N)C(=O)N[C@H](C(=O)NCC(=O)N[C@@H](CO)C(=O)N[C@@H](CO)C(=O)N[C@@H](CCCCN)C(=O)N[C@@H](CCCNC(=N)N)C(=O)N[C@@H](CCCCN)C(=O)N[C@@H](CCCCN)C(=O)N[C@@H](CO)C(=O)N[C@@H](CCC(=O)O)C(=O)N[C@@H](CCCCN)C(=O)N[C@@H](CCCCN)C(=O)N[C@H](C(=O)N[C@H](C(=O)N[C@@H](CCCCN)C(N)=O)[C@@H](C)O)C(C)C)C(C)C)[C@@H](C)CC)C(C)C
Take B3: the “Antagonist IC50 (InsP formation, against 1 µM …)” value in assay [2] was determined as 2 µM.

B4: P1pal-12 (Pal-RCLSSSAVANRS) (peptide)
peptide: Palmitoyl-RCLSSSAVANRS-NH2
SMILES: CCCCCCCCCCCCCCCC(=O)N[C@@H](CCCNC(=N)N)C(=O)N[C@@H](CS)C(=O)N[C@@H](CC(C)C)C(=O)N[C@@H](CO)C(=O)N[C@@H](CO)C(=O)N[C@@H](CO)C(=O)N[C@@H](C)C(=O)N[C@H](C(=O)N[C@@H](C)C(=O)N[C@@H](CC(N)=O)C(=O)N[C@@H](CCCNC(=N)N)C(=O)N[C@@H](CO)C(N)=O)C(C)C
B4: the “Antagonist IC50 (InsP formation, against 0.1 nM thrombin)” value in the assay with human PAR1 came out at 5 µM.

B5: MC4pal-14 (Pal-TGAIRQGANMKGAI) (peptide)
peptide: Palmitoyl-TGAIRQGANMKGAI-NH2
SMILES: CCCCCCCCCCCCCCCC(=O)N[C@H](C(=O)NCC(=O)N[C@@H](C)C(=O)N[C@H](C(=O)N[C@@H](CCCNC(=N)N)C(=O)N[C@@H](CCC(N)=O)C(=O)NCC(=O)N[C@@H](C)C(=O)N[C@@H](CC(N)=O)C(=O)N[C@@H](CCSC)C(=O)N[C@@H](CCCCN)C(=O)NCC(=O)N[C@@H](C)C(=O)N[C@H](C(N)=O)[C@@H](C)CC)[C@@H](C)CC)[C@@H](C)O
Consider B5, for which, in the assay with MC4 receptor (MC4R), the “EC50, activating phase (adenylate cyclase)” value was approximately 0.15 µM; the “IC50, inhibitory phase (adenylate cyclase)” value was approximately 10 µM; the “adenylate cyclase activity relative to alpha-MSH” value came to 40%.
Take Palmitoyl-KKSRALF-NH2 [P1pal-7 (Pal-KKSRALF)]: the “Antagonist IC50 (InsP formation, against 0.1 nM thrombin)” value with human PAR1 turned out to be 1.2 µM.

B6: P1pal-19E (Pal-RCESSSAEANRSKKERELF) (peptide)
peptide: Palmitoyl-RCESSSAEANRSKKERELF-NH2
SMILES: CCCCCCCCCCCCCCCC(=O)N[C@@H](CCCNC(=N)N)C(=O)N[C@@H](CS)C(=O)N[C@@H](CCC(=O)O)C(=O)N[C@@H](CO)C(=O)N[C@@H](CO)C(=O)N[C@@H](CO)C(=O)N[C@@H](C)C(=O)N[C@@H](CCC(=O)O)C(=O)N[C@@H](C)C(=O)N[C@@H](CC(N)=O)C(=O)N[C@@H](CCCNC(=N)N)C(=O)N[C@@H](CO)C(=O)N[C@@H](CCCCN)C(=O)N[C@@H](CCCCN)C(=O)N[C@@H](CCC(=O)O)C(=O)N[C@@H](CCCNC(=N)N)C(=O)N[C@@H](CCC(=O)O)C(=O)N[C@@H](CC(C)C)C(=O)N[C@@H](Cc1ccccc1)C(N)=O
Turning to B6, in the assay with human PAR1, the “Agonist EC50” value was found to be 2.5 µM; the “Agonist Efficacy (% of full response to extracellular agonist)” value is 11%; the “Agonist IC50 (inhibitory phase, InsP formation)” value was 80 µM; the “Antagonist IC50 (InsP formation, against 0.1 nM thrombin)” value is more than 50 µM.

B7: P1pal-13 (Pal-AVANRSKKSRALF) (peptide)
peptide: Palmitoyl-AVANRSKKSRALF-NH2
SMILES: CCCCCCCCCCCCCCCC(=O)N[C@@H](C)C(=O)N[C@H](C(=O)N[C@@H](C)C(=O)N[C@@H](CC(N)=O)C(=O)N[C@@H](CCCNC(=N)N)C(=O)N[C@@H](CO)C(=O)N[C@@H](CCCCN)C(=O)N[C@@H](CCCCN)C(=O)N[C@@H](CO)C(=O)N[C@@H](CCCNC(=N)N)C(=O)N[C@@H](C)C(=O)N[C@@H](CC(C)C)C(=O)N[C@@H](Cc1ccccc1)C(N)=O)C(C)C
As to B7, in the assay with human PAR1, the “Agonist EC50” value was 0.7 µM and the “Agonist IC50 (inhibitory phase, InsP formation)” value came out at 32 µM.

B8: Apal-19F (Pal-RIRSNSSAANLMAKKRVIEF) (peptide)
peptide: Palmitoyl-RIRSNSSAANLMAKKRVIEF-NH2
SMILES: CCCCCCCCCCCCCCCC(=O)N[C@@H](CCCNC(=N)N)C(=O)N[C@H](C(=O)N[C@@H](CCCNC(=N)N)C(=O)N[C@@H](CO)C(=O)N[C@@H](CC(N)=O)C(=O)N[C@@H](CO)C(=O)N[C@@H](CO)C(=O)N[C@@H](C)C(=O)N[C@@H](C)C(=O)N[C@@H](CC(N)=O)C(=O)N[C@@H](CC(C)C)C(=O)N[C@@H](CCSC)C(=O)N[C@@H](C)C(=O)N[C@@H](CCCCN)C(=O)N[C@@H](CCCCN)C(=O)N[C@@H](CCCNC(=N)N)C(=O)N[C@H](C(=O)N[C@H](C(=O)N[C@@H](CCC(=O)O)C(=O)N[C@@H](Cc1ccccc1)C(N)=O)[C@@H](C)CC)C(C)C)[C@@H](C)CC
Take B8: in assay [3], the “Agonist EC50” value is 0.2 µM; the “Agonist Efficacy (% of full response to 300 nM CCK-8)” value is less than 10%; the “Agonist IC50 (inhibitory phase, InsP formation)” value is 2 µM.
